Results taken from patent US20140235701, “NGF APTAMER AND APPLICATION THEREOF” (RIBOMIC INC., published 2014).
Where a chain is given by its changes, count along the chain named.

B1: SEQ ID NO: 9 (ssRNA)
RNA: GGGAGAACUUCGACCAGAAGUUGGCACAUCCUGCUGCGUAGUUUCCGUCUCCGUGGCUGUUAUGUGCGCAUAC
modifications: 2'-F C and U; 2'-OH G; 2'-H (deoxy) A
B2: SEQ ID NO: 10 (ssRNA)
RNA: GGGAGAACUUCGACCAGAAGUUGGCACAUCCUGCUGCGUAGUUUCCGUCUCCGUGGCUGUUAUGUGCG
modifications: 2'-F C and U; 2'-OH G; 2'-H (deoxy) A
B3: SEQ ID NO: 14 (ssRNA)
RNA: GGGAGAACUUCGACCAGAAGUGCAAUACUUUCGCGGCAUAUGUGCAAACCUUGCCACGACUAUGUGCGCAUACAUGGA
modifications: 2'-F C and U; 2'-OH G; 2'-H (deoxy) A
B4: SEQ ID NO: 15 (ssRNA)
RNA: GGGAGAACUUCGACCAGAAGUGCAAUACUUUCGCGGCAUAUGUGCAAACCUUGCCACGACUAUGUGCGCAUAC
modifications: 2'-F C and U; 2'-OH G; 2'-H (deoxy) A
B5: SEQ ID NO: 16 (ssRNA)
RNA: CGACCAGAAGUGCAAUACUUUCGCGGCAUAUGUGCAAACCUUGCCACGACUAUGUGCGCAUAC
modifications: 2'-F C and U; 2'-OH G; 2'-H (deoxy) A
B6: SEQ ID NO: 82(64) (ssRNA)
RNA: GGGUCCUGGAUAAGAGUUUCCGUCUCGUAUCCUGUUACCC
modifications: 2'-F C5,U7,U17,U18,U19,C20,C24,U25,U33,U36; 2'-OH G8,G34; 2'-H A; 2'-OMe all other; 5' PEG40TS2; 3' idT
B7: SEQ ID NO: 82(1) (ssRNA)
RNA: B6 RNA
modifications: 2'-F all C and U; 2'-OMe G1-3,G9,G14,G16,G22,G27; 2'-OH G8,G34; 2'-H A; idT 5' and 3'
B8: SEQ ID NO: 161 (ssRNA)
RNA: B6 RNA with U33T
modifications: 2'-F C5,U7,U17,U18,U19,C20,C24,U25,U36; dT33; 2'-OH G8,G34; 2'-H A; 2'-OMe all other; idT 5' and 3'
B9: SEQ ID NO: 160 (ssRNA)
RNA: B6 RNA with U17T
modifications: 2'-F C5,U7,U18,U19,C20,C24,U25,U33,U36; dT17; 2'-OH G8,G34; 2'-H A; 2'-OMe all other; idT 5' and 3'
B10: SEQ ID NO: 82(56) (ssRNA)
RNA: B6 RNA
modifications: 2'-F all C and U; 2'-OMe G1-3,G9,G14,G16,G22,G27; 2'-OH G8,G34; 2'-H A; 5' PEG40GS2; 3' idT
B11: SEQ ID NO: 111(1) (ssRNA)
RNA: B6 RNA with G9U, A10C, U30G, C31A
modifications: 2'-OMe except 2'-F C5,U7,U17-19,C20,C24,U25,U33,U36, 2'-OH G8,G34, dA12,dA13; 3' idT

These binders were tested against T1, NGF (nerve growth factor) (Homo sapiens, UniProt P01138 P01138:122-241) (assay: SPR; more than 40N; high inhibition of receptor binding). Details: tags: R&D Systems; chain copies: 2.
T1 sequence (P01138 122-241, one chain of several): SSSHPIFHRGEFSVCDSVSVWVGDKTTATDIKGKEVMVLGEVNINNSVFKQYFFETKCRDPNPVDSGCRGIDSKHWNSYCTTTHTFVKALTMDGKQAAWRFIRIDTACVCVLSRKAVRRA

Binder	binding result
B1	binds
B2	binds
GGGCACAUCCUGCUGCGUAGUUUCCGUCUCCGUGGCUGUUAUGUGC (ssRNA, 2'-F C and U; 2'-OH G; 2'-H (deoxy) A) [SEQ ID NO: 11]	binds
GGGGUCCUGCUGCGUAGUUUCCGUCUCCGUGGCUGUUACCCC (ssRNA, 2'-F C and U; 2'-OH G; 2'-H (deoxy) A) [SEQ ID NO: 13]	binds
B3	binds
B4	binds
B5	binds

Same assay, conditions: tags: R&D Systems; chain copies: 2; stem 1 - internal loop 1 - stem 2 - loop 2 (consensus secondary structure 1)

Binder	binding result
GGGUCCUGCUGCGUAGUUUCCGUCUCCGUGGCUGUUACCC (ssRNA, 2'-F C and U; 2'-OH G; 2'-H (deoxy) A) [SEQ ID NO: 12]	binds

The binders below were run against T1, NGF (nerve growth factor) (assay: cell_activity; neurite). Details: tags: R&D Systems; chain copies: 2.
Procedure: (§1) The cells (2500 cells per well) were cultured for one day in an RPMI-1640 medium containing 2.5% horse serum and 1.25% fetal bovine serum in a 96 well flat-bottom plate coated with collagen type IV. […] Two days later, the cytoplasm and nuclei were stained using Cellomics Neurite Outgrowth Kit (manufactured by Thermo Scientific), and neurite length per cell was measured by Cellomics ArrayScan VTI (manufactured by Thermo Scientific). With the neurite length per cell obtained by the addition of NGF alone as inhibitory activity 0%, and that of the cell obtained by NGF free culture for 2 days as inhibitory activity 100%, the inhibitory activity of the aptamer was calculated from the neurite length per cell obtained by culturing with the addition of NGF and the aptamer in mixture.

Binder	IC50 [nM]
GGGUCCUGCUGCGUAGUUUCCGUCUUCGCGGCUGUUACCC (ssRNA, 2'-OMe G (G8,G34 2'-OH), dA, 2'-F C/U; 5',3' idT) [SEQ ID NO: 38(1)]	≤ 1
GGGUCCUGCUGCGUAGUUUCCGUCUGCGUGGCUGUUACCC (ssRNA, 2'-OMe G (G8,G26,G34 2'-OH), dA, 2'-F C/U; 5',3' idT) [SEQ ID NO: 151]	≤ 1
GGGUCCUGCUGCGUAGUUUCCGUCUGCGUGGCUGUUACCC (ssRNA, 2'-OMe G (G8,G34 2'-OH), dA, 2'-F C/U; 5',3' idT) [SEQ ID NO: 152]	≤ 1
GGGUCCUGCUGCGUAGUUUCCGUCUGCGUGGCUGUUACCC (ssRNA, 2'-OMe G (G8,G34 2'-OH), dA, 2'-F C/U; 5' PEG40GS2, 3' idT) [SEQ ID NO: 153]	≤ 1
GGGUCCUGCUGCGUAGUUUCCGUCUGCGUGGCUGUUACCC (ssRNA, 2'-OMe G (G8,G34 2'-OH), dA, 2'-F C/U; 5' idT, 3' PEG40GS2) [SEQ ID NO: 154]	≤ 1
GGGUCCUGCUGCGCAGUUUCCGUCUACGUGGCUGUUACCC (ssRNA, 2'-OMe G (G8,G34 2'-OH), dA, 2'-F C/U; 5',3' idT) [SEQ ID NO: 155]	≤ 1
GGGUCCUGCUGCAUAGUUUCCGUCUUUGUGGCUGUUACCC (ssRNA, 2'-OMe G (G8,G34 2'-OH), dA, 2'-F C/U; 5',3' idT) [SEQ ID NO: 66(1)]	≤ 1
GGGUCCUGAUGCGUAGUUUCCGUCUGCGUGUCUGUUACCC (ssRNA, 2'-OMe G (G8,G34 2'-OH), dA, 2'-F C/U; 5',3' idT) [SEQ ID NO: 68(1)]	≤ 1
GGGUCCUGCUGCAUAGUUUCCGUCUGUGUGGCUGUUACCC (ssRNA, 2'-OMe G (G8,G34 2'-OH), dA, 2'-F C/U; 5',3' idT) [SEQ ID NO: 71(1)]	≤ 1
GGGUCCUGCUGCAGAGUUUCCGUCUCGGUGGCUGUUACCC (ssRNA, 2'-OMe G (G8,G34 2'-OH), dA, 2'-F C/U; 5',3' idT) [SEQ ID NO: 74(1)]	≤ 1

The binders below were run against T1, NGF (nerve growth factor) (assay: SPR; strong neurite inhibition at 10 nM). Details: tags: R&D Systems; chain copies: 2.

Binder	binding result
GGGUCCUGCCGCGUAGUUUCCGUCUUCGCGGUUGUUACCC (ssRNA, 2'-F C/U, dA, 2'-OH G) [SEQ ID NO: 93]	binds
GGGUCCUGCUGCGUAGUUUCCGUCUGCGGAGCUGUUACCC (ssRNA, 2'-F C/U, dA, 2'-OH G) [SEQ ID NO: 94]	binds
GGGUCCUGCUGCGUAGUUUCCAUCUUCGUGGCUGUUACCC (ssRNA, 2'-F C/U, dA, 2'-OH G) [SEQ ID NO: 95]	binds
GGGUCCUGCUGCGUAGUUUCCGUCUAUGUGGCUGUUACCC (ssRNA, 2'-F C/U, dA, 2'-OH G) [SEQ ID NO: 96]	binds
GGGUCCUGCUACGUAGUUUCCGUCUGCGUGGCUGUUACCC (ssRNA, 2'-F C/U, dA, 2'-OH G) [SEQ ID NO: 97]	binds
GGGUCCUGCUACGUAGUUUCCGUCUACGUGGCUGUUACCC (ssRNA, 2'-F C/U, dA, 2'-OH G) [SEQ ID NO: 98]	binds

The binders below were run against T1, NGF (nerve growth factor) (assay: cell_activity; neurite; TF-1 <0.3). Details: tags: R&D Systems; chain copies: 2.

Binder	IC50 [nM]
GGGUCCUGAUUAAGAGUUUCCGUCUCGUAAUCUGUUACCC (ssRNA, 2'-F C/U, dA, 2'-OH G) [SEQ ID NO: 76]	< 0.3
GGGUCCUGACUAAGAGUUUCCGUCUCGUAGUCUGUUACCC (ssRNA, 2'-F C/U, dA, 2'-OH G) [SEQ ID NO: 77]	< 0.3
GGGUCCUGGCCAAGAGUUUCCGUCUCGUGGUCUGUUACCC (ssRNA, 2'-F C/U, dA, 2'-OH G) [SEQ ID NO: 78]	< 0.3
GGGUCCUGGUUAAGAGUUUCCGUCUCGUAACCUGUUACCC (ssRNA, 2'-F C/U, dA, 2'-OH G) [SEQ ID NO: 79]	< 0.3
GGGUCCUGGCUAAGAGUUUCCGUCUCGUAGUCUGUUACCC (ssRNA, 2'-F C/U, dA, 2'-OH G) [SEQ ID NO: 80]	< 0.3
GGGUCCUGGAUAAGAGUUUCCGUCUCGUAUCCUGUUACCC (ssRNA, 2'-F C/U, dA, 2'-OH G) [SEQ ID NO: 82]	< 0.3
GGGUCCUGUACAAGAGUUUCCGUCUCGUGUACUGUUACCC (ssRNA, 2'-F C/U, dA, 2'-OH G) [SEQ ID NO: 83]	< 0.3

These binders were tested against T1, NGF (nerve growth factor) (assay: SPR; strong binding). Details: tags: R&D Systems; chain copies: 2.

Binder	binding result
GGGUCCUGCUGCGCAGUUUCCGUCUGCGUGGCUGUUACCC (ssRNA, 2'-F C and U; 2'-OH G; 2'-H (deoxy) A) [SEQ ID NO: 39]	binds
GGGUCCUGCUGCGUAGUUUCCAUCUGCGUGGCUGUUACCC (ssRNA, 2'-F C and U; 2'-OH G; 2'-H (deoxy) A) [SEQ ID NO: 40]	binds
GGGUCCUGCUGCGAAGUUUCCUUCUUCGUGGCUGUUACCC (ssRNA, 2'-F C and U; 2'-OH G; 2'-H (deoxy) A) [SEQ ID NO: 41]	binds
GGGUCCUGCUGCGCAGUUUCCCUCUGCGUGGCUGUUACCC (ssRNA, 2'-F C and U; 2'-OH G; 2'-H (deoxy) A) [SEQ ID NO: 42]	binds
GGGUCCUGCUGCGGAGUUUCCUUCUUCGUGGCUGUUACCC (ssRNA, 2'-F C and U; 2'-OH G; 2'-H (deoxy) A) [SEQ ID NO: 43]	binds
GGGUCCUGUUGCGUAGUUUCCUUCUACGUGGCUGUUACCC (ssRNA, 2'-F C and U; 2'-OH G; 2'-H (deoxy) A) [SEQ ID NO: 45]	binds

The binders below were run against T1, NGF (nerve growth factor) (assay: cell_activity; neurite outgrowth inhibition). Details: tags: R&D Systems; chain copies: 2.
Procedure: as §1

Binder	IC50 [nM]
B6	0.107
B7	0.7
GGGUCCUGUCGCUAAGUUUCCGUCUUUGCGGCUGUUACCC (ssRNA, 2'-F C and U; 2'-OH G; 2'-H (deoxy) A) [SEQ ID NO: 84]	0.793
B8	0.036
B9	0.038
B10	0.067

The binders below were run against T1, NGF (nerve growth factor) (assay: cell_activity; neurite; TF-1 >0.3). Details: tags: R&D Systems; chain copies: 2.

Binder	IC50 [nM]
GGGUCCUGUGGAAGAGUUUCCGUCUCGUCCACUGUUACCC (ssRNA, as 89(4) plus 2'-OMe U4,A15,A31,A37; no 5' idT) [SEQ ID NO: 89(5)]	0.079
GGGUCCUGGAUAAGAGUUUCCGUCUCGUAUCCUGUUACCC (ssRNA, as 82(48) without 5' idT; PS between U7 and G8) [SEQ ID NO: 82(57)]	0.045
GGGUCCUGGAUAAGAGUUUCCGUCUCGUAUCCUGUUACCC (ssRNA, as 82(48) without 5' idT; PS between G8 and G9) [SEQ ID NO: 82(58)]	0.072
GGGUCCUGGAUAAGAGUUUCCGUCUCGUAUCCUGUUACCC (ssRNA, as 82(48) without 5' idT; PS between U11 and A12) [SEQ ID NO: 82(59)]	0.034
GGGUCCUGGAUAAGAGUUUCCGUCUCGUAUCCUGUUACCC (ssRNA, as 82(48) without 5' idT; PS between A13 and G14) [SEQ ID NO: 82(61)]	0.031
GGGUCCUGGAUAAGAGUUUCCGUCUCGUAUCCUGUUACCC (ssRNA, as 82(48) without 5' idT; PS between U33 and G34) [SEQ ID NO: 82(62)]	0.039
B11	0.06
